For orientation: Kd means a measure of binding affinity in units of concentration.

Among the data in article PMC2887293 (Protein expression and purification, 2010) are Kd values, retold here.

Assay [1] concerns the target … peptide. As to conditions: cited from earlier work.
The target of assay [2] is human N-His6-mortalin (Δ1-51) (human, UniProt P38646 52-679). As to the kind of experiment: fluorescence polarisation. (Polarisation of emitted light reports the rotation of a fluorescent probe.)

Where no end group is shown, it is not given here. fluorescein = fluorescein label attached at the C-terminus

Ssq1, sequence (Q05931 2-657): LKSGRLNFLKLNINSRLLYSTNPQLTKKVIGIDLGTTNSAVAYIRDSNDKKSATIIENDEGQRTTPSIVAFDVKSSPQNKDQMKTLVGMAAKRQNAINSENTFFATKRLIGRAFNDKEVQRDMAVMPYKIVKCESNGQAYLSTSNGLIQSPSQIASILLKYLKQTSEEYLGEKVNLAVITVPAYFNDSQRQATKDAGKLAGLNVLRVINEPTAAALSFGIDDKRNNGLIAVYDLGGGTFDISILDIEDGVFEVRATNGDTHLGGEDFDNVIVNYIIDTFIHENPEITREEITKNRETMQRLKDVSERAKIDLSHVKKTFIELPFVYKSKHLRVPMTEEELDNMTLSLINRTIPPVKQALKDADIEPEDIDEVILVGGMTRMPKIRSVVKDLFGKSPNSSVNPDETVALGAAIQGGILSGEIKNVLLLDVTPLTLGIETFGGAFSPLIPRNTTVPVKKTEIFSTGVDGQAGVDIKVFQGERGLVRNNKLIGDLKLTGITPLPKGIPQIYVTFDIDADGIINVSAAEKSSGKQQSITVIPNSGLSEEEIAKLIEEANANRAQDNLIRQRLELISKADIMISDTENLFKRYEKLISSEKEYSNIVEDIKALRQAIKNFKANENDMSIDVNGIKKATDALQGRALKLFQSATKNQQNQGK
human N-His6-mortalin (Δ1-51), sequence (P38646 52-679, stated change not applied): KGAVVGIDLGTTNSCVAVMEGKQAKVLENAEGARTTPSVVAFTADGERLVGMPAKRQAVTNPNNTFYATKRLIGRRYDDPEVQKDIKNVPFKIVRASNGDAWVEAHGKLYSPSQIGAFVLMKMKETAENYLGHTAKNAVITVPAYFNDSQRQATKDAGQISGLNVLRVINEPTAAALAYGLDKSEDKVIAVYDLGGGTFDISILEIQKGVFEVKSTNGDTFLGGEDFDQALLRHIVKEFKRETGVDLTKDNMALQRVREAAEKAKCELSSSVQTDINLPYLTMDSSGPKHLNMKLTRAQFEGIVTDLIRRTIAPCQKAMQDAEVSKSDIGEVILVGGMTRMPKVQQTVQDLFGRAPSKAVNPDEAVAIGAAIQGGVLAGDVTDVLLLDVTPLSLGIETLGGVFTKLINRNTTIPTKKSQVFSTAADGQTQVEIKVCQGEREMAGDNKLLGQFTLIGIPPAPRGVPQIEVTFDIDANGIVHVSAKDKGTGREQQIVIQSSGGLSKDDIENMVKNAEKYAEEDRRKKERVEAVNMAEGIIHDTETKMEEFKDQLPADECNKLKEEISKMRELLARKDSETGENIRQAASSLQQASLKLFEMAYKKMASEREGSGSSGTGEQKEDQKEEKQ

In the case of Ssq1 (from UniProt Q05931), the Kd in assay [1] is 2800 nM.
For LSLPPVKLHK-fluorescein [LSLPPVKLHK-fluorescein], the Kd in assay [2] was determined as 1200 ± 100 nM.
